A short description of the series: yeast display, Sf9 membrane polyspecificity reagent, FACS + sequencing; frameworks hold sequencing errors. In short, it runs like this: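 A nanobody's polyreactivity label depends on the gate it was sorted from. Yeast display cells were stained with 10% biotinylated, detergent-solubilized Sf9 membrane reagent for 1 hour at 4 °C, enriched on streptavidin microbeads and sorted by FACS. The low and high (top ~1%) gates were set on anti-HA fluorescence for expression and streptavidin fluorescence for reagent binding.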
Regarding “QVQLVESAGGLVQAGGSLRLSCAASGRIFSIYAMGWSRQAPGKERELVAAIRRGGSTSYADSVKGRFTISRDNAKNTVYLQMNSLKPEDTAVYYCAARLRYLGYDFWGQGTQVTVSS”, the “polyreactivity (PSR sort gate)” value was “high polyreactivity”.
In the case of “QVQLVESAGGLVQAGGSLRLSCAASGRIFVRYAKGRYREAPGKVRELVAAISSSGSSTYYADSVKRRFTISRDNASNTVYLQMNSLKPEDTAVYYCNAVPSVRWRYDYWGQGTQVTVSS” it was “high polyreactivity”.
As for “QVQLVESAGGLVQAGGSLRLSCAASGRNFVDYAMGWYRQAPGKERELVAAITQRGGSTYYADSVKGRFTISRDNAKNTVYLQMNSLKPEDTAVYYCAAVTRFYTKYYWGQGTQVTVSS”, the “polyreactivity (PSR sort gate)” value is given as “high polyreactivity”.
With “QVQLVESAGGLVQAGGSLRLSCAASGRTIRWYTMGWYRQAPGKERELVAGISSSGGSTYYADSVKGRFTISRDTAKNTVYLQMNSLKPEDTAVYYCNVVTWYYVFRPWEYDYWGQGTQVTVSS” the entry was “low polyreactivity”.
In the case of “QVQLVESAGGLVQAGGSLRLSCAASGSIFVYNTMGWYRQAPGKERELVASITYSGGSTYYADSVKGRFTISRDNAKNTVYLQMNSLKPEDTAVYYCNTDDVALQWDWYPYPYDYWGQGTQVTVSS” it was “low polyreactivity”; in that of “QVQLVESAGGLVQAGGSLRLSCAASGSNFGDYPLGWYRQAPGKERELVAAISVRGGSTYYADSVKGRFTISRDNAKITVYLQMKSLKPEDTAVYYCNKDLYRYPGYDYWGHGTQVTVSS”, “high polyreactivity”.
With “QVQLVESAGGLVQAGGSLRLSCAASGSTFLIYALGCYRHAPGKERELVAAITVSGGDTYYADSVKGRFTISRDNAKNTVYLQMNSLKPEDTAVYYCAAEGGNDYSSVDAGISYDYWGQGTKVTVSS” the entry was “low polyreactivity”; with “QVQLVESAGGLVQAGGSLRLSCAASGSTFWLYAMGWYRQAPGKERELVAAISYTGTSTYYADSVKGRFTISRDNAKNTVYLQMNSLKPEDTAVYDCAADFVGLVTGYDYSWGQGTQVTVSS”, “low polyreactivity”; with “QVQLVESAGGLVQAGGSLRLSCAASGSTIYGCVMGWYRHAPGKERELVAGITRGGSTNYADSVKGRFTISRDNAKNTVYLQMNSLKPEDTAVYYCATRYFSRYYYWGQGTQVTVSS”, “high polyreactivity”.
On to “QVQLVESAGGLVQAGGSLRLSCAASGTFYYYAMGWYRQAPGKERELVAAISNGDSTTYADSVKGRFTISRDNAKNTVYLQMNSLNPEDTAVYYCAAYRYTPRTSRGYYYWGQGTQVTVSS”, for which the “polyreactivity (PSR sort gate)” value was “low polyreactivity”.
With “QVQLVESAGGLVQAGGSLRLSCAASGYTISYANAMGWYRQAPGKERELVASISSTGGRTYYADSVKGRFTISRDNAKNTVYLQMNSLKPEDTAVYYCASRYWRYGYWGQGTQVTVSS” the entry was “high polyreactivity”; with “QVQLVESAGGLVQAGGSLRLSCAASVSIFFIYARGWYRQAPGKERELVATISRSDVSTFYGDSVKGRFTISRDNAKNTVYLQMNSLKPEDTAVYYCAAEWSPPEPIQLYGYWGQGTQVTVSS”, “high polyreactivity”.
As to “QVQLVESAGGLVQAGGSLRLSCAASVSTIAPNAMGWYRQAPGKERELVASIRRGGSTHYADSVKGSFTISRDNAKNTVYLQMNSLKPEDTAVYYCAKDVWRHYLNLYDYWGQGTQVTLSS”, the “polyreactivity (PSR sort gate)” value is “low polyreactivity”.
For “QVQLVESAGGLVQAGGSLRLSCDASGRIFQRNAMGWYRQEPGKERQFVAAISSRGGTTYYADSVKGRFTISRDNAKNTVYLQMNSLKQEDNAVYYCAAGYVHLYYFHEYYWGQGTQVTVSS”, the “polyreactivity (PSR sort gate)” value was “high polyreactivity”.
With “QVQLVESAGGLVQAGGSLRLSCGASGRIFGWYALGWSRQAPGKERQLVAAITRSGGSTFYADSVKGRFTISRDNAKNTVYLQMHSLKPDDTAVYYCNARYFNGRHKHYYWGQGTQVTVSS” the entry was “high polyreactivity”.
With “QVQLVESAGGLVQAGGSLRLSCPASGGISALYAMGWYRQAPGKERELVAAISASGGSTYYADSVKGRFTISRDNAKNTVYLQMNSLKPEDTAVYYCNVAVLTSDIYSTTIYYYGIYDYWGQGTQVTVSS” the entry was “high polyreactivity”; with “QVQLVESAGGLVQAGGSLRLSCSASGSTFSSNGMGWYRKAPGKERELVAAITSVGSTNYADSVKGRFTISRDNAKNTVYLQMNSLKPEDTAVYYCNAERTAYGGGDYWGQGTQVTVSS”, “low polyreactivity”; with “QVQLVESAGGLVQAGGSLRLSSAASGRIFKYNAMGWYRQAPGKERELVAAISSSGARTYYADSVKGRFTISRDNAKNTVYLQMNSLKPEDTAVYYCAVYYYDFTSTEYGYWGLGTQVTVSS”, “high polyreactivity”.
With “QVQLVESAGGLVQAGGSLSLSCAASGFTFYRNAMGWYRQAPGQERELVAAISRSGGRTYYADSVKGRFTISRDNAKNTVYLQMNSLKPEDTSVYYCAVYVTRDSGWWLYDYWGQGTQVTVSS” the entry was “high polyreactivity”; with “QVQLVESAGGLVQAGGSLSLSCAASGRIFYSYAMGWYRQAPGKERELVAAISSAGSTYYADSVKGRFTMSRDNEKNTVYLQTNSLKPEDTAVYYCAAYRAGNSYYPRLNYWGQGTQVTVSS”, “high polyreactivity”.
Take “QVQLVESAGGLVQAGGSLSLSCAASGRIFYYNTMGWYRQAPGKERELVAAISSTASTTYADSVKGRFTISRDNAKNTVYLQMNILKPEDTAVYYCAADHRYHWAYPRGYYYWGQGTQVTVSS”: the “polyreactivity (PSR sort gate)” value is given as “high polyreactivity”.
With “QVQLVESAGGLVQAGGTLRLSCAASGSIFRTHTMGWYRQAPGKERELVAAITAIGDSTYYADAVKGRFTISRDNAKNTVNRQLHSLKPEDTAVYYCAAEKVSWGYHFYSSYDYWGQGTQVTVSS” the entry was “low polyreactivity”; with “QVQLVESAGGLVQAGVSLRLSCAASGRTFYWYTMGWYRQAPGKERELVAAISSAGSTYYADSVKGRFTISRDNAKNTVYLQMNSLKPEDTAVYSCAAGSHSGRAYYYWGQGTQVTVSS”, “high polyreactivity”; with “QVQLVESAGGLVQARGSLRLSCAASGITFAQYAKGWYRQATGKERELVAGITRSGGSTHYADSVKGRFTISRDNAKYTVYLQMKSLKPEDSAVYYCNARYPYRGKRKPPDYWGQGTQVTVSS”, “high polyreactivity”.
Take “QVQLVESAGGLVQEGGSLRISCAASGRIFFYYSMGWYRQAPGKERELVAAISQSGGSTYYADSVKGRFTISRDNAKNTVYLQMNSLKPEDTAVYYCNAADPYYDTSAVAGDYWGHGTQVTVSS”: the “polyreactivity (PSR sort gate)” value is “low polyreactivity”.
Regarding “QVQLVESAGGLVQEGGSLRLSCAASGSTFGDNAMGWYSQAPGKERELVAAITSVGTTYYADSVKGRFTISRDNAKNTVYLQMNSLKPEDSAVYDCNADWSWYNYYDFDYWGQGTQVTVSS”, the “polyreactivity (PSR sort gate)” value is given as “low polyreactivity”.
In the case of “QVQLVESAGGVVQAGGSLRLSSAASGSIFDGNAMGWYRPAPGKERQLVAAISGGGRTYYADSVKGRFTISRDNAKNTVYLQMNSLKPEDTAVYYCAAAYTFYVYGSYKVTFDYWGQGTQVTVSS” it was “low polyreactivity”; in that of “QVQLVESAGVLVQAGGSLRLSCAACGSIFDYYALGWYRQAPGKERELVDTISGGGGTTYYADSVKGRFTISRDNAKNTVYLIMNSLKPEDTAVYYCAADSLGYNYWGQGTQVTVSS”, “low polyreactivity”.
In the case of “QVQLVESCGCLVQAGCSLRLSCAASGSTFQGYAMGWYRQAPGKERELVAAITIRGTRTYYADSVKGRFTISRDNAKNTVYLQMNSLKPEDTAVYYCAAYDYRHLEDKYDYWGQGTQVTVSS” it was “high polyreactivity”; in that of “QVQLVESCGGIVQAGGSLRLICAASGRIFDSNAMGWYRQSPGKETELVAAITTSGGSTFYADSVKVRFTISRDNAMNTVYLQMISLKPEDTAVYYCAAGYSFYYHAIFPFDYWGQGNQVTVSS”, “high polyreactivity”.
With “QVQLVESCGGLVHAGGSLRLSCAASGRTCVGNVMGWYRQAPGKERELVAAISRSGGNTYYADSVKGRFTISRDNAKNTVYLLMNSLKPEDTAVYYCAKVGLYGPVEYDYWGQGTQVTVSS” the entry was “high polyreactivity”; with “QVQLVESCGGLVQAGGILRLSCAASGFISSENAMGWYRQAPGKERELVAAISSGGSTNYADSVKGRFTISRDNAKNTVYLQMNRLKAEVTAVYYCAATLQGWYHEDESWGQGTQVTVSS”, “low polyreactivity”; with “QVQLVESCGGLVQAGGRLRLSCADYGRTFSWYAMGSYRQAPGKERELVAAITFRGGRTYYADSVKGRFTISRDNAKNTVYIQMNSLKPEDTAVYYFNAVTYSSPYRFDYCGQGTQVTVSS”, “low polyreactivity”.
“QVQLVESCGGLVQAGGSLRISCAASGIIFHLYAMGWYRQAPGKQRELVAAISWNGSSTYYADSVKGRFTISRDYAKNTVYLQRNSLKPEDTAVYYCAASYGYFEDYGYWGHGTQVTVSS”: the “polyreactivity (PSR sort gate)” value was “low polyreactivity”.
With “QVQLVESCGGLVQAGGSLRLICAASGRNFGHNAMGWYRQAPGKEREFVAAITYSGVRTFFADSVKGRFTISRDNAKNTVYLQMNCLKPEDTAVYYCATDWRRYYDYWGQGTQVTVSS”, the “polyreactivity (PSR sort gate)” value is “low polyreactivity”.
With “QVQLVESCGGLVQAGGSLRLSCAASGFIFRIYAMGWYRQAPGKERELVAAITWSGGRTFYADSVKGRFTISRDNAKNTVYLQMNSLKPEDTAVFYCAARGRSSGFGYWGQGTQVTVSS” the entry was “high polyreactivity”; with “QVQLVESCGGLVQAGGSLRLSCAASGFIFRSYAMGWYRKAHGKERELVAAISRSGGSTYYADSVKGRFTISRDNAKNTVYLQMNSLKPEDTAVYYCATDGGRSTARGFGHWGQGTQVTVSS”, “high polyreactivity”; with “QVQLVESCGGLVQAGGSLRLSCAASGFIIGYYAMGWYRQAPGKERELVAAISSTGGSTYYADSVKGRFTISRDNAKNNVYLQMNSLKPEDTAVYYCAKRFAYYRYHPGYDYWGQGTQVTVSS”, “high polyreactivity”.
With “QVQLVESCGGLVQAGGSLRLSCAASGFTFWRYAMGWYRQAPGKERELVAAISRTGGRTYYADSVKGRFTISRDNAKNTVYLQMNSLKPEDTAVYYCAAVKYETYRYNYDYWGQGTQVTVSS” the entry was “high polyreactivity”; with “QVQLVESCGGLVQAGGSLRLSCAASGGTIVFYAMGWYRQAPGKERELVAAISSSGGSTYYADSVKGRFTISRDNAKNTVYLQMNSLKPEDTAVYYCNTPSYSGSSPYDHWGQGTQVTVSS”, “high polyreactivity”.
For “QVQLVESCGGLVQAGGSLRLSCAASGIIFGVYALGWYRQAPGKERELVAAIDGNGSSTSYADSVKGRFSISRDNAKNTVYLQINSLKPEDTAVYYCAAGYWYYLYYCYDFDYWGQGTQVTVSS”, the “polyreactivity (PSR sort gate)” value is given as “low polyreactivity”.

The values above are taken from the nanobody polyreactivity screen of Harvey et al. (2022).
